Measurements as given in US20040006215A1 (Bristol-Myers Squibb, published 2004).
Several values for one entry are separate records, joined by “and”; a condition that tells them apart may be missing. Identical values can stand only once.

Tests used:
[1] = target: T1, Human CD30 antigen (Medarex, Inc.) (human) (UniProt P28908); assay: SPR (Biacore 3000), 5F11 captured on protein A, CD30 as analyte, 1:1 Langmuir fit, experiment 2
T1 sequence (looked up): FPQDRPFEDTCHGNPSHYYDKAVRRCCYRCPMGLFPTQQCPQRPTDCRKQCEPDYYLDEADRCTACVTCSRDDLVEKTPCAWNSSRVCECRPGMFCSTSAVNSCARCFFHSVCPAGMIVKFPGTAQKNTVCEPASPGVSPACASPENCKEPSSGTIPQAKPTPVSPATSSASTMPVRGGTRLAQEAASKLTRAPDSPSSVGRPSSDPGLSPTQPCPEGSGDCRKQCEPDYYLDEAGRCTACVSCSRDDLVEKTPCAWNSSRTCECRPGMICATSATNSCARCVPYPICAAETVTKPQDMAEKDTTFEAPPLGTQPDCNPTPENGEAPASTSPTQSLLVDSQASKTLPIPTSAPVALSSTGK

[2] = target: native CD30 expressed on cells (L540 Hodgkin's lymphoma cell line) (human) (UniProt P28908); assay: flow cytometry on L540 cells
[3] = target: native CD30 expressed on cells (L540 Hodgkin's lymphoma cell line) (human) (UniProt P28908); assay: cell-based or functional assay
[4] = target: T2, recombinant CD30 (supernatant from transfected cells expressing recombinant CD30) (UniProt P28908); assay: capture ELISA: recombinant CD30 captured on BerH2-coated wells, detection with AP-labeled goat anti-human IgG Fc, OD405
T2 sequence (looked up): T1 sequence (looked up)

[5] = target: T1, Human CD30 antigen (Medarex, Inc.) (human); assay: SPR (Biacore 3000), 5F11 captured on protein A, CD30 as analyte, 1:1 Langmuir fit, experiment 1
[6] = target: native CD30 expressed on cells (L540 Hodgkin's lymphoma cell line) (human) (UniProt P28908); assay: flow cytometry on L540 cells at 4 °C, detection with FITC-labeled goat anti-human IgG Fc, mean fluorescence intensity
[7] = target: T3, native CD30 expressed on cells (L540 Hodgkin's lymphoma cell line) (human, UniProt P28908 19-595); assay: as above
T3 construct: whole, on cells; also called CD30 on L540 cells; CD30-expressing L540 cells
T3 sequence (looked up): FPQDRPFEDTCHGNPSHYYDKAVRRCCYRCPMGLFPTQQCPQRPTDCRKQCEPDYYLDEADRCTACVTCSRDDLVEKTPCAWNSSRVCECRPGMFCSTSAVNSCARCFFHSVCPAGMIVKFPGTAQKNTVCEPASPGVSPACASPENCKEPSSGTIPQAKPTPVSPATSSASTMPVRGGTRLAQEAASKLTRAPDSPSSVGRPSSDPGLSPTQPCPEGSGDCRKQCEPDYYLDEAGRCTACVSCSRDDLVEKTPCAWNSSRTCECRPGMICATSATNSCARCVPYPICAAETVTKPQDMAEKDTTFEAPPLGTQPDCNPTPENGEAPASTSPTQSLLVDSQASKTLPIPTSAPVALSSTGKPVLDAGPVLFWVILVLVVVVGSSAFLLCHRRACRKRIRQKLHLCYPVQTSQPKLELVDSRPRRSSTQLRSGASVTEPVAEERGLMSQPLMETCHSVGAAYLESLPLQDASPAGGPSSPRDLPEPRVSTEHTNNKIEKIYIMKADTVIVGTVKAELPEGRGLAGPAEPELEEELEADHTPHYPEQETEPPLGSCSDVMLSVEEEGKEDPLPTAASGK
Protocol: Antibodies were tested for binding to L540, a Hodgkin's lymphoma cell line that expresses high-levels of CD30. […] After 1 hour, the cells were washed with PBS and the bound antibodies were detected by incubating the cells with a FITC labeled goat anti-human IgG Fc-specific probe, at 4° C. The excess probe was washed from the cells with PBS and the cell associated fluorescence was determined by analysis using a FACScalibur instrument.

[8] = target: T4, recombinant CD30 (supernatant from transfected cells expressing recombinant CD30) (UniProt P28908 19-379, limits assumed); assay: capture ELISA: recombinant CD30 captured on BerH2-coated wells, detection with AP-labeled goat anti-human IgG Fc, OD405
T4 construct: May be the same preparation as the soluble recombinant CD30 used for immunisation or as m4
T4 sequence (looked up): T1 sequence (looked up)
Protocol: Microtiter wells were coated with BerH2. After blocking the wells with 5% BSA solution, supernatant from transfected cells expressing recombinant CD30 was allowed to react with BER-H2 coated wells. […] After 1 hour, the wells were washed with PBS-tween and the bound antibodies were detected by incubating the cells with an alkaline-phosphatase-labeled goat anti-human IgG Fc-specific probe, at 37° C. The excess probe was washed from the wells and the plate was developed with pNPP developer. The optical density at 405 nm was determined using a microtiter plate reader.

B1: human monoclonal antibody (HuMab) 5F11 (antibody, V domains shown)
VH: QVQLQQWGAGLLKPSETLSLTCAVYGGSFSAYYWSWIRQPPGKGLEWIGDINHGGGTNYNPSLKSRVTISVDTSKNQFSLKLNSVTAADTAVYYCASLTAYWGQGSLVTVSS
VL: DIQMTQSPTSLSASVGDRVTITCRASQGISSWLTWYQQKPEKAPKSLIYAASSLQSGVPSRFSGSGSGTDFTLTISSLQPEDFATYYCQQYDSYPITFGQGTRLEIK
- Kd [1]: 1.14 nM and 1.12 nM
- koff [1]: 6.58e-05 s⁻¹ and 6.86e-05 s⁻¹
- kon [1]: 57700 M⁻¹ s⁻¹ and 61300 M⁻¹ s⁻¹
- concentration at saturation [2]: < 1 µg/mL
- IC50 of growth inhibition (XTT assay) of L540 and Karpas 299 cells, 5F11 cross-linked by goat-anti-human IgG [3]: 10 µg/mL
- EC50 (read off the curve) [4]: 0.04 µg/mL
- Kd [5]: 1.23 nM and 1.36 nM
- koff [5]: 7.47e-05 s⁻¹ and 7.03e-05 s⁻¹
- kon [5]: 60900 M⁻¹ s⁻¹ and 51600 M⁻¹ s⁻¹
- EC50 (read off the curve) [6]: 0.05 µg/mL

B2: human monoclonal antibody (HuMab) 2H9 (antibody, V domains shown)
VH: QVQLQQWGAGLLKPSETLSLTCAVYGGSFSGYYWSWIRQPPGKGLEWIGEINHSGSTKYTPSLKSRVTISVDTSKHQFSLKLSSVTAADTAVYYCARETVYYFDLWGRGTLVTVSS
VL: EIVLTQSPATLSLSPGERATLSCRASQSVSSNLAWYQQKPGQAPRLLIYDASNRATGIPARLSGSGSGTDFTLTISSLEPEDFAVYYCQQRSNWPWTFGQGTKVEIK
- EC50 (read off the curve) [7]: ~0.1 µg/mL
- EC50 (read off the curve) [8]: ~0.03 µg/mL
